Measurements: patent publication US20110065633A1, “ESTER-BASED PEPTIDE PRODRUGS” (INDIANA UNIVERSITY RESEARCH AND TECHNOLOGY CORPORATION, priority 2008, published 2011)
Each block holds one molecule with its values, some of them ahead of it. Where no end group is shown, it is not given here. Side-chain parts run from the residue outwards. [ ]: non-standard residue; d: D form. The star is where a group is joined. Desaminohistidyl = O=C(CCc1c[nH]cn1)*; PLA = phenyl lactic acid; Aib = CC(C)(N)C(=O)O

What was measured:
[1] = biological target: T1, GLP-1 receptor (Homo sapiens, UniProt P43220); experiment: Luciferase-based reporter gene assay for cAMP detection, GLP-1 receptor; type: cell-based; parameters: expressed in transfected cells; host or cells: HEK293; details: for Potency compared with native GLP-1: luciferase assay, in vitro
Target sequence in this assay (P43220 24-463, species assumed): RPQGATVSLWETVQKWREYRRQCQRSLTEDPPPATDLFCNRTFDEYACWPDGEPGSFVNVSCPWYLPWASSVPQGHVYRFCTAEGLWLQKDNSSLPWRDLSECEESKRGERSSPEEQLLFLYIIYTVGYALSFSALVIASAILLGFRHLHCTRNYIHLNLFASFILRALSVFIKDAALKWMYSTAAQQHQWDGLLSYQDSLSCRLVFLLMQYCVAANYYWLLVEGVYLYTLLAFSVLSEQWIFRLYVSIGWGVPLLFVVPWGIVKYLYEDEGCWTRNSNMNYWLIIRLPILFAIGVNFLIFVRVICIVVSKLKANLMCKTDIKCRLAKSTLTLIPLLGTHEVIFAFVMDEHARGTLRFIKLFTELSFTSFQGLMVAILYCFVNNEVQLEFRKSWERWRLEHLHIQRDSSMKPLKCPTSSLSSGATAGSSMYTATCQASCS

[2] = biological target: T1, GLP-1 receptor; experiment: cell-based or functional assay
Target sequence in this assay (P43220 24-463 limits assumed): as the sequence (P43220 24-463, species assumed) above

[3] = biological target: glucagon receptor (UniProt P47871); experiment: cell-based or functional assay
[4] = biological target: glucagon receptor (UniProt P47871); experiment: cell-based or functional assay; remark: listed apart in the source
[5] = system: diabetes-induced obesity (DIO) mice; experiment: Blood glucose after glucose injection in DIO mice; type: in vivo; details: for blood glucose after glucose injection compared with corresponding non-prodrug form: 2 nmol/kg intraperitoneally 15 min before […] glucose, FIGS. 12, 13; for blood glucose concentrations compared with vehicle control: 15 or 70 nmol/kg intraperitoneally 60 min before […] glucose, FIG. 15
Method: Six groups of diabetes-induced obesity (DIO) mice (eight mice per group) having an initial average body weight of 49.5 g were intraperitoneally injected with 2 nmol/kg of a PBS vehicle control or one of Peptides A-E described below:
(§1) Fifteen minutes after injection with one of the compounds or with vehicle control (at time point 0), a 25% (w/v) glucose saline solution was injected at a dose of 1.5 g per kg of body weight. Blood glucose concentrations of the mice were measured at the time of injection of the compound or vehicle control, at the time of glucose injection, and at 15, 30, 60, and 120 minutes after glucose injection.
Blood glucose levels of the mice were measured as described in Example 5.
(§2) Nine groups of diabetes-induced obesity (DIO) mice (8 mice per group) having an initial average body weight of 56 g were intraperitoneally injected once and followed for one week with 15 or 70 nmol/kg of Peptides Y, Z, F-Peg, and G-Peg described below or PBS vehicle control.
as §1, with “Sixty” for “Fifteen”, “peptides” for “compounds”, “peptide” for “compound”, “control (at time point −60),” for “control,”, “injection (at time point 0),” for “injection,”

[6] = system: diabetes-induced obesity (DIO) mice; experiment: Body weight and food intake of DIO mice over one week; type: in vivo; details: single injection 15 or 70 nmol/kg; for total efficacy as measured over a week study: prodrug versus non-prodrug; for total food intake: FIG. 17
Method: as §2
The body weight of each mouse of each group was measured on 1, 3, 5, and 7 days after injection with the vehicle control or peptide. Total change in body weight was calculated by substracting the average body weight of a group at the time of injection with vehicle or peptide from the average body weight of the group seven days after injection. Food intake by each group of mice was measured during the course of the week as well. Total food intake was measured seven days after injection with vehicle control or peptide. […] The Ser11 substitution or the des-amino His7 reduces total efficacy.

[7] = biological target: GLP-1 receptor (UniProt P43220 24-463, limits assumed); experiment: cell-based or functional assay

glucagon receptor, sequence (P47871 26-477 limits assumed): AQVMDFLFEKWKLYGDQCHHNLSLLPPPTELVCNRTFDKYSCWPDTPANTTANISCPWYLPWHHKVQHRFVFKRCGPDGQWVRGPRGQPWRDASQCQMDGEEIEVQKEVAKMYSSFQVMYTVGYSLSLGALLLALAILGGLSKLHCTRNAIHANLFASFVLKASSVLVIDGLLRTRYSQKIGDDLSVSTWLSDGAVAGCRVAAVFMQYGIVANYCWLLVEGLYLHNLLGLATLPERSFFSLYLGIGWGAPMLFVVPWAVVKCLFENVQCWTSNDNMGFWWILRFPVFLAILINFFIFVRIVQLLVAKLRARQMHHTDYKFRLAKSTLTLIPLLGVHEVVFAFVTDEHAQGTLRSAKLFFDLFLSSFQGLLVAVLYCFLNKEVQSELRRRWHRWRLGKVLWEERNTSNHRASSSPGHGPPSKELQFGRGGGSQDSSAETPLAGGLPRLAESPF

Agonist character [1]: full agonist | potency of native GLP-1 ([1]; percent of the potency of native GLP / GLP-1): 10%
Molecule: F^7,GLP(8-37): aa 7-37 of GLP-1 with the His at position 7 replaced with Phe (FAEGTFTSDVSSYLEGQAAKEFIAWLVKGRG; Glucagon-like peptide 1(7-37); UniProt P01275 98-128, looked up, variant H7F)

Molecule: G^5V^6-O-F^7,GLP(8-36)CEX (peptide)
% potency with respect to parent; before incubation [2]: 10.9% | % potency with respect to parent; prodrug incubated in PBS for 24 hrs before the assay [2]: 46% | % potency with respect to parent; prodrug incubated in PBS for 168 hrs before the assay [2]: 95.8%

Molecule: Glucagon (6-CEX) analog E9, E16K20(lactam) (peptide)
Glucagon IC50 [3]: 42 nM | GLP-1 EC50 [2]: 36 nM | Glu IC50 [4]: 42 nM

Molecule: Glucagon (6-CEX) analog E9, K12, E16 (peptide)
Glucagon IC50 [3]: 762 nM | Glu IC50 [4]: 762 nM

Molecule: Glucagon (6-CEX) analog E9, K12E16(lactam) (peptide)
Glucagon IC50 [3]: 2010 nM | GLP-1 EC50 [2]: 63 nM | Glu IC50 [4]: 2010 nM

Molecule: Glucagon (6-CEX) analog [PLA6, E9, E16K20(Lactam)] (peptide)
Glucagon IC50 [3]: 20 nM

Molecule: Glucagon (6-CEX) analog [PLA6, E9, K12E16(Lactam) (peptide)
Glucagon IC50 [3]: 72 nM | GLP-1 EC50 [2]: 6 nM | Glu IC50 [4]: 72 nM

Molecule: HAEGTFTSDVSSYLEGQAAKEFIAWLVKGRGKRNRNNIA [GLP-oxyntomodulin, GLP-oxyntomodulin chimeric peptide]
Potency compared with native GLP-1 [1]: at least as potent as the native GLP-1 peptide

% potency with respect to parent ([1]; Table 7, before incubation (0 hrs), parent drug as such): 100% (parent drug) | Potency compared with native GLP-1 [1]: at least as potent as the native GLP-1
Molecule: HO-FAEGTFTSDVSSYLEGQAAKEFIAWLVKGXPSSGAPPPS [HO—F^7,GLP(8-36)-CEX]

Molecule: HO-F^5F^6-O-F^7,GLP(8-36)-CEX (peptide)
% potency with respect to parent; before incubation [2]: 3.7% | % potency with respect to parent; prodrug incubated in PBS for 24 hrs before the assay [2]: 17.2%

Molecule: H^7AEGTFTSDVSSYLEGQAAKEFIAWLVKGXPSSGAPPPS-amide [GLP(7-36)-CEX amide]
Potency compared with native GLP-1 [1]: approximately ten times more potent in vitro than the native GLP-1 sequence

Molecule: Peptide A: prodrug of Peptide B, dipeptide d-Phe-dPhe attached via the O-terminus ({dF-dF-PLA}-[Aib]EGTFTSDVSSYLEEQAAKEFIAWLVKGRPSSGAPPPS-NH2; also: PLA bonded to D-Phe via an ester bond)
blood glucose after glucose injection compared with corresponding non-prodrug form [5]: higher than the blood glucose levels of mice injected with the corresponding non-prodrug forms

Molecule: Peptide C: prodrug of Peptide B, dipeptide d-Phe-d-Val attached via the O-terminus ({dF-dV-PLA}-[Aib]EGTFTSDVSSYLEEQAAKEFIAWLVKGRPSSGAPPPS-NH2; also: PLA bonded to D-Val via an ester bond)
blood glucose after glucose injection compared with corresponding non-prodrug form [5]: higher than the blood glucose levels of mice injected with the corresponding non-prodrug forms

Molecule: Peptide E: prodrug of Peptide D, d-Phe-d-Val ester-linked to Ser at position 11 (H[Aib]EGS([dV-dF])FTSDVSSYLEEQAAKEFIAWLVKGRPSSGAPPPS-NH2; N-terminus assumed; SMILES CC[C@H](C)[C@H](NC(=O)[C@H](Cc1ccccc1)NC(=O)[C@H](CCC(=O)O)NC(=O)[C@H](CCCCN)NC(=O)[C@H](C)NC(=O)[C@H](C)NC(=O)[C@H](CCC(N)=O)NC(=O)[C@H](CCC(=O)O)NC(=O)[C@H](CCC(=O)O)NC(=O)[C@H](CC(C)C)NC(=O)[C@H](Cc1ccc(O)cc1)NC(=O)[C@H](CO)NC(=O)[C@H](CO)NC(=O)[C@@H](NC(=O)[C@H](CC(=O)O)NC(=O)[C@H](CO)NC(=O)[C@@H](NC(=O)[C@H](Cc1ccccc1)NC(=O)[C@H](COC(=O)[C@H](NC(=O)[C@H](N)Cc1ccccc1)C(C)C)NC(=O)CNC(=O)[C@H](CCC(=O)O)NC(=O)C(C)(C)NC(=O)[C@@H](N)Cc1c[nH]cn1)[C@@H](C)O)C(C)C)C(=O)N[C@@H](C)C(=O)N[C@@H](Cc1c[nH]c2ccccc12)C(=O)N[C@@H](CC(C)C)C(=O)N[C@H](C(=O)N[C@@H](CCCCN)C(=O)NCC(=O)N[C@@H](CCCNC(=N)N)C(=O)N1CCC[C@H]1C(=O)N[C@@H](CO)C(=O)N[C@@H](CO)C(=O)NCC(=O)N[C@@H](C)C(=O)N1CCC[C@H]1C(=O)N1CCC[C@H]1C(=O)N1CCC[C@H]1C(=O)N[C@@H](CO)C(N)=O)C(C)C)
blood glucose after glucose injection compared with corresponding non-prodrug form [5]: higher than the blood glucose levels of mice injected with the corresponding non-prodrug forms

Molecule: Peptide F-Peg: Peptide F analog with Cys at 30 covalently linked to a 40 kDa PEG ([Desaminohistidyl]SEGTFTSDVSSYLEEQAAKEFIC(PEG 40 kDa)WLVKGRPSSGAPPPS-NH2)
blood glucose concentrations compared with vehicle control [5]: less as compared to the blood glucose levels of mice injected with vehicle control | total efficacy as measured over a week study [6]: comparable | total food intake ([6]; seven days): decreased

Molecule: Peptide G-Peg: pegylated prodrug, d-Phe-d-Val ester-linked to the Ser at position 8 ([Desaminohistidyl]S([dV-dF])EGTFTSDVSSYLEEQAAKEFIC(PEG 40 kDa)WLVKGRPSSGAPPPS-NH2)
blood glucose concentrations compared with vehicle control [5]: less as compared to the blood glucose levels of mice injected with vehicle control | total efficacy as measured over a week study [6]: comparable | total food intake ([6]; seven days): decreased

Molecule: Peptide G: prodrug of Peptide F, d-Phe-dVal ester-linked to the Ser at position 2 of Peptide F ([Desaminohistidyl]S([dV-dF])EGTFTSDVSSYLEEQAAKEFIAWLVKGRPSSGAPPPS-NH2; SMILES CC[C@H](C)[C@H](NC(=O)[C@H](Cc1ccccc1)NC(=O)[C@H](CCC(=O)O)NC(=O)[C@H](CCCCN)NC(=O)[C@H](C)NC(=O)[C@H](C)NC(=O)[C@H](CCC(N)=O)NC(=O)[C@H](CCC(=O)O)NC(=O)[C@H](CCC(=O)O)NC(=O)[C@H](CC(C)C)NC(=O)[C@H](Cc1ccc(O)cc1)NC(=O)[C@H](CO)NC(=O)[C@H](CO)NC(=O)[C@@H](NC(=O)[C@H](CC(=O)O)NC(=O)[C@H](CO)NC(=O)[C@@H](NC(=O)[C@H](Cc1ccccc1)NC(=O)[C@@H](NC(=O)CNC(=O)[C@H](CCC(=O)O)NC(=O)[C@H](COC(=O)[C@H](NC(=O)[C@H](N)Cc1ccccc1)C(C)C)NC(=O)CCc1c[nH]cn1)[C@@H](C)O)[C@@H](C)O)C(C)C)C(=O)N[C@@H](C)C(=O)N[C@@H](Cc1c[nH]c2ccccc12)C(=O)N[C@@H](CC(C)C)C(=O)N[C@H](C(=O)N[C@@H](CCCCN)C(=O)NCC(=O)N[C@@H](CCCNC(=N)N)C(=O)N1CCC[C@H]1C(=O)N[C@@H](CO)C(=O)N[C@@H](CO)C(=O)NCC(=O)N[C@@H](C)C(=O)N1CCC[C@H]1C(=O)N1CCC[C@H]1C(=O)N1CCC[C@H]1C(=O)N[C@@H](CO)C(N)=O)C(C)C)
blood glucose after glucose injection compared with corresponding non-prodrug form [5]: higher than the blood glucose levels of mice injected with its corresponding non-prodrug form

Molecule: Peptide Y: GLP-1 with AIB at 8, Glu at 22, Cys at 30 linked to 40 kDa PEG, Exendin 4 extension (H[Aib]EGTFTSDVSSYLEEQAAKEFIC(PEG 40 kDa)WLVKGRPSSGAPPPS-NH2)
blood glucose concentrations compared with vehicle control [5]: less as compared to the blood glucose levels of mice injected with vehicle control | total food intake ([6]; seven days): decreased | potency in decreasing appetite and decreasing body weight ([6]; seven days, FIGS. 16, 17): most potent of the four peptides

Molecule: Peptide Z: pegylated (40 kDa) GLP-1-based prodrug, d-Phe-d-Val ester-linked to Ser at position 11 (H[Aib]EGS([dV-dF])FTSDVSSYLEEQAAKEFIC(PEG 40 kDa)WLVKGRPSSGAPPPS-NH2)
blood glucose concentrations compared with vehicle control [5]: less as compared to the blood glucose levels of mice injected with vehicle control | total food intake ([6]; seven days): decreased

GLP-1 EC50 [7]: 0.28 nM
B1: ANK2 (Bayer peptide) (peptide)
peptide: HSQGTFTSDYARYLDARRAREFIKWLVRGRG
